Assay [1] deals with Tie2-Fc (Beijing Sino Biological, Catalog No. 10700-H03H) (UniProt Q02763). As to the kind of experiment: ELISA: biotin-Ang2 (0.2 ug/mL) on coated Tie2-Fc, no antibody (blank of the blocking assay).
The target in assay [2] is T1, human VEGF165 (human, UniProt P15692-4 27-191).
T1 construct: all are put under this molecule; also called VEGF A; VEGFA
As to the kind of experiment: BLI (ForteBio), bivalent binding; * exceeds ForteBio detection limit.

The target of assay [3] is T2, human Ang2 (human, UniProt O15123 19-496, limits assumed).
T2 construct: Bought proteins; also called hAng2-biotin; Ang2-Bio (Sino)
T2 sequence (looked up): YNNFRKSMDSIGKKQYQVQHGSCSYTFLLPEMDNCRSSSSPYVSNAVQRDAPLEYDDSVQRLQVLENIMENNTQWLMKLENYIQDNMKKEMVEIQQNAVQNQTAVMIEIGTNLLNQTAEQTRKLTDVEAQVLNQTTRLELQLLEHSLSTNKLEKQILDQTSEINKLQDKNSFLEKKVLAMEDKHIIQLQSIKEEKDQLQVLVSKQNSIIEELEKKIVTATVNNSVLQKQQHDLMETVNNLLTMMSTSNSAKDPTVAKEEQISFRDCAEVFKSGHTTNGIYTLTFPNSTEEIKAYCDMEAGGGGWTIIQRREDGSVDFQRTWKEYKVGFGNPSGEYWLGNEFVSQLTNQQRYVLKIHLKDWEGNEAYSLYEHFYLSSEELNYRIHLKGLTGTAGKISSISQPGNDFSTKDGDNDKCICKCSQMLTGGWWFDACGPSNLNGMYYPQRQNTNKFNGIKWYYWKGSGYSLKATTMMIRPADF
As to the kind of experiment: blocking ELISA: biotinylated hAng2 on coated hTie2, antibody titrated from 300 nM.

Tie2-Fc (Beijing Sino Biological, Catalog No. 10700-H03H), sequence (Q02763 23-745 limits assumed): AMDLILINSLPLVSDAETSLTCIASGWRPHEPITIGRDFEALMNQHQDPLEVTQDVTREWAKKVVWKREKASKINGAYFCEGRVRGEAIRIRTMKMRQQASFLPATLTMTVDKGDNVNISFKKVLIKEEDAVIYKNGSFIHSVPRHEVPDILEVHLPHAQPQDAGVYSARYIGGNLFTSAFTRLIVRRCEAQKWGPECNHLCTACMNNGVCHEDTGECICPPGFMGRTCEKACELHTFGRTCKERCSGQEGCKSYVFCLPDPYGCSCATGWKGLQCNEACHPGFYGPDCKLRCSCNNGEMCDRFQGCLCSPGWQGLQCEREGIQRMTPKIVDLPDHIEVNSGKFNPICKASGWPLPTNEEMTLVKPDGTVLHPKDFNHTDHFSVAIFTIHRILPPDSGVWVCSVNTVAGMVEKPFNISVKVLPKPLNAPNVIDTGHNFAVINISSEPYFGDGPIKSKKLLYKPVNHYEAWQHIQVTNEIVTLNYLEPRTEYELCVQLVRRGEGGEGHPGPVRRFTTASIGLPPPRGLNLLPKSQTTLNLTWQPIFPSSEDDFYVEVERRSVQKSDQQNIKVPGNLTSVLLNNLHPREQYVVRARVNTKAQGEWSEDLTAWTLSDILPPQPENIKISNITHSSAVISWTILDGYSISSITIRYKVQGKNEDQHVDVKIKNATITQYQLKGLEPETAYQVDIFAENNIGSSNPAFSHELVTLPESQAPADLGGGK
T1 sequence (P15692 other isoform, or with tags, fused parts or gaps limits assumed): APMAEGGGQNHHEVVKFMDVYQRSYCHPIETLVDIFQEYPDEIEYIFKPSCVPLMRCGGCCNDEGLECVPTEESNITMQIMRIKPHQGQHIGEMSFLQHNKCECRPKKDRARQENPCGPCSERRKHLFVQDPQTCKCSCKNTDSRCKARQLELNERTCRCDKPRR

In assay [1], “human Ang2 (from UniProt O15123 19-496) (ligand)” returned an OD450nm of 3.45 OD450nm.

B1: LA46E11 (VHH)
VHH: QVQLEESGGGLVQPGGSLRLSCVASGSIFSINAMGWHRQAPGSQRELVATMIGGSSTFYADSVNGRFTISRDNAKNTVYLQMNSLKLEDTAVYYCYADVTGRSGTSIWNKRDDYWGQGTLVTVSS
notes: Alpaca immune-library VHH; also called LA46E11 (VEGFA VHH); anti-VEGF A VHH antibody
Molecule B1 came in with a dissociation rate constant (koff) in assay [2] of at most 0.0002 s⁻¹.

B2: IEX04-008 (bispecific antibody)
chain: EVQLLESGGGLVQPGGSLRLSCAASGSIFSINAMGWHRQAPGKQRELVATMIGGSSTFYAESVQGRFTISRDNSKNTVYLQMNSLRAEDTAVYYCYADVTGRSGTSIWNKRDDYWGQGTQVTVSSGGGGSGGGGSEVQLLESGGGLVQPGGSLRLSCAASGSIFSINAMGWHRQAPGKQRELVATMIGGSSTFYAESVQGRFTISRDNSKNTVYLQMNSLRAEDTAVYYCYADVTGRSGTSIWNKRDDYWGQGTQVTVSSGGGGSGGGGSEVQLLESGGGLVQPGGSLRLSCAASGFALDYYAIGWFRQAPGKGLEGVSCISSGEGSTYYADSVKGRFTISRDNSKNTVYLQMNSLRAEDTAVYYCATDSRGDDVACEGLRRNEYDYWGQGTLVTVSS
notes: expressed in 293 cells; also called LA46E11.8 (VHH) + linker + LA46E11.8 (VHH) + LA24C11.10
In the case of B2, the binding result in assay [3] was “binds”.
